One molecule from patent US20210063414A1, “METHODS FOR PREVENTING AND/OR TREATING BONE LOSS CONDITIONS BY MODULATING IRISIN” (Dana-Farber Cancer Institute, Inc., priority 2018, published 2021) can be followed below.

This assay has as its system inguinal fat. The assay is described as follows: Irisin injection in mice: Ucp1/Dio2 mRNA and Ucp1 protein in inguinal fat. It counts as in vivo. Here is the method:
FIG. 18A-FIG. 18B show mRNA and protein levels of indicated genes. 1 mg/kg irisin was injected to 8-week old mice every other day for 6 days. mRNA levels of indicated genes in inguinal fat were analyzed by qRT-PCR. Cyclophilin was used for housekeeping gene (FIG. 18A). Inguinal fats were also lysed to detect the indicated protein level using immunoblot analysis (FIG. 18B). FIGS. 18C and 18D show mRNA and protein levels of indicated genes. Mice were treated and analyzed as (A-B) with addition of coinjection of […] control RGD peptide or cyclo RGDyK (cRGDyK). mRNA levels of indicated genes in inguinal fat were analyzed by qRT-PCR. Cyclophilin was used for house-keeping gene (FIG. 18C). Inguinal fats were also lysed to detect the indicated protein level using immunoblot analysis (FIG. 18D). […] Ucp1 mRNA level was analyzed by qRT-PCR. […]
RNA was extracted from cultured cells or frozen tissues using TRIzol® (Thermo Fischer Scientific) and purified with RNeasy® mini kit (QIAGEN 74106). […] To perform qRT-PCR analysis, normalized RNA was reverse transcribed using a high-capacity cDNA reverse-transcription kit (Applied Biosystems™). cDNA was analyzed by qRT-PCR with indicated primers. Relative mRNA levels were calculated using the comparative CT method and normalized to cyclophilin mRNA. […]

B1: irisin: secreted cleaved form of FNDC5; recombinant human/mouse irisin with C-terminal his tag produced in HEK293 cells (protein)
chain: DSPSAPVNVTVRHLKANSAVVSWDVLEDEVVIGFAISQQKKDVRMLRFIQEVNTTTRSCALWDLEEDTEYIVHVQAISIQGQSPASEPVLFKTPREAEKMASKNKDEVTMKE
modifications: left off: small tags and cut ends
notes: secreted cleaved form of FNDC5; recombinant human/mouse irisin with C-terminal his tag produced in HEK293 cells
With B1, the “Ucp1 protein level in whole tissue (western blot)” value (mice, irisin injections) is on record as “also increased”. In addition, the “increase of mRNA level of Ucp1” value (wild-type mice, 1 mg/kg irisin every other day for 6 days) was “more than 2 fold”.
